Experimental data: patent US20230279059A1 (VIB VZW, published 2023)

B5: recombinant Ena1B with N-terminal 6xHis tag and TEV cleavage site (other)
chain: MHHHHHHSSGENLYFQGNCSTNLSCCANGQKTIVQDKVCIDWTAAATAAIIYADNISQDIYASGYLKVDTGTGPVTIVFYSGGVTGTAVETIVVATGSSASFTVRRFDTVTILGTAAAETGEFCMTIRYTLS
B11: Bacillus cereus NVH 0075-95 Endospore appendage (Ena) 1B, wild type (other)
chain: MGNCSTNLSCCANGQKTIVQDKVCIDWTAAATAAIIYADNISQDIYASGYLKVDTGTGPVTIVFYSGGVTGTAVETIVVATGSSASFTVRRFDTVTILGTAAAETGEFCMTIRYTLS
notes: also called WT Ena1B; WT recEna1B

Legend:
[1] = target: the molecule itself; assay: expression in E. coli, nsTEM
[2] = target: the molecule itself; assay: self-assembly of tag-free protein in the E. coli cytoplasm, negative stain TEM
[3] = target: B11; assay: immunogold TEM and cryoEM of ex vivo S-type Enas; both subunits within single fibers
[4] = target: the molecule itself; assay: in vitro self-assembly after TEV cleavage, NS-TEM and cryo-EM
[5] = target: the molecule itself; assay: self-assembly in the E. coli cytoplasm, NS-TEM
[6] = target: the molecule itself; assay: self-assembly after refolding from 8M urea, negative stain TEM
[7] = target: the molecule itself; assay: in vitro self-assembly after TEV cleavage, cryo-EM
[8] = target: the molecule itself; assay: self-assembly after refolding by dialysis, EM
[9] = target: the molecule itself; assay: self-assembly after TEV cleavage of the His-tag, TEM
[10] = target: B5; assay: epitaxial growth on maleimide magnetic beads carrying 6×His_TEV_Ena1B multimers, nsTEM
[11] = target: the molecule itself; assay: expression in E. coli, ns-TEM
[12] = target: T1, split-BC Ena1B, C-terminal part (strands CDEFGHI) (Bacillus cereus NVH 0075-95); assay: co-expression of the two halves in E. coli, NS-TEM
T1 construct: also called split BC construct, C-terminal half
T1 chain: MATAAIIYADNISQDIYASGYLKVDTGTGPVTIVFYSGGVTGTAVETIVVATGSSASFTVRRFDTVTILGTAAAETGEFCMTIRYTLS

B1: Ena1B-DE-Flag insertion variant (other)
chain: MGNCSTNLSCCANGQKTIVQDKVCIDWTAAATAAIIYADNISQDIYASGYLKVDTGSDYKDDDDKGSGPVTIVFYSGGVTGTAVETIVVATGSSASFTVRRFDTVTILGTAAAETGEFCMTIRYTLS
binding result [1]: binds

B2: Bacillus cereus NVH 0075-95 Endospore appendage (Ena) 1A, wild type (other)
chain: MACECSSTVLTCCSDNSSNFVQDKVCNPWSSAEASTFTVYANNVNQNIVGTGYLTYDVGPGVSPANQITVTVLDSGGGTIQTFLVNEGTSISFTFRRFNIIQITTPATPIGTYQGEFCITTRYLMA
notes: also called KMP91697.1; WP_000742049.1
binding result [2]: binds
binding result [3]: binds

B3: Ena2A after removal of the 6×His-TEV blocker by TEV protease (other)
chain: MSCECSGSALTCCPDKNYVQDKVCSPWSATVVATAIDNVLYTNNINQNVVGTGFVKYDVGPGPITVEALDSAGGTIDTQTLNPGTSIAFTYRRFDSIQVVLPATPAGTYQGEFCITTRYPLS
notes: also called in vitro assembled Ena2A filament
binding result [4]: binds

B4: Ena2A without steric block (other)
chain: MSCECSGSALTCCPDKNYVQDKVCSPWSATVVATAIDNVLYTNNINQNVVGTGFVKYDVGPGPITVEALDSAGGTIDTQTLNPGTSIAFTYRRFDSIQVVLPATPAGTYQGEFCITTRYPLS
notes: also called WP_001277540.1
binding result [5]: binds

B5
binding result [6]: binds

B6: Ena2C after removal of the 6×His-TEV blocker by TEV protease (other)
chain: MKNKKNIGCFAPLSIICPDPCPPPPPPNPNCERVTNEFAGNFLITNNTIPSAKDASQSMILWQSDGILLISGTVSVYNSTSSTETITIQIVGTVTNIFTVFPGNTISYTGKDLHSVSIINITSNPSLYLEGKYCCEFTCCL
notes: also called short L-like Ena2C filaments
binding result [7]: binds

B7: recombinant Ena1C with N-terminal 6xHis tag and TEV cleavage site (other)
chain: MHHHHHHSSGENLYFQGKPHKNIGCFAPLSIICQPTCPCPPPILPPERGDAELVTNEFAGDILISNDFIPISQKQLKQTNTTVNIWKNDGIVSLSGTISIYNNRNSTNALSIQIISSTTNTFTALPGNTISYTGFDLQSVSVIDIPSDPSIYIEGRYCFQLTYCKSKRDCL
notes: also called recEna1C; WP_000802321
binding result [8]: binds

B8: recEna1B after removal of the N-terminal 6xHis tag by TEV protease (other)
chain: GNCSTNLSCCANGQKTIVQDKVCIDWTAAATAAIIYADNISQDIYASGYLKVDTGTGPVTIVFYSGGVTGTAVETIVVATGSSASFTVRRFDTVTILGTAAAETGEFCMTIRYTLS
notes: also called in vitro Ena1B fibers; recENA1B (PDB7A02)
binding result [9]: binds
binding result [10]: binds

B9: recEna1BΔNtc (deletion of residues 2-15 of WT Ena1B) (other)
chain: MKTIVQDKVCIDWTAAATAAIIYADNISQDIYASGYLKVDTGTGPVTIVFYSGGVTGTAVETIVVATGSSASFTVRRFDTVTILGTAAAETGEFCMTIRYTLS
binding result [11]: binds

B10: split-BC Ena1B, N-terminal part (strands AB) (other)
chain: MGNCSTNLSCCANGQKTIVQDKVCIDWTAA
notes: also called split BC construct, N-terminal half
binding result [12]: binds

B11
binding result [2]: binds

B12: M-His6-SSG-Ena1B, steric block of 9 amino acids (other)
chain: MHHHHHHSSGGNCSTNLSCCANGQKTIVQDKVCIDWTAAATAAIIYADNISQDIYASGYLKVDTGTGPVTIVFYSGGVTGTAVETIVVATGSSASFTVRRFDTVTILGTAAAETGEFCMTIRYTLS
binding result [11]: binds

B13: Ena1B-HI-HA insertion variant (other)
chain: MGNCSTNLSCCANGQKTIVQDKVCIDWTAAATAAIIYADNISQDIYASGYLKVDTGTGPVTIVFYSGGVTGTAVETIVVATGSSASFTVRRFDTVTILGGSYPYDVPDYAGSAAETGEFCMTIRYTLS
binding result [1]: binds

B14: M-TEV-Ena1B (M-[…]-Ena1B), steric block of 6 amino acids (other)
chain: MENLYFQGNCSTNLSCCANGQKTIVQDKVCIDWTAAATAAIIYADNISQDIYASGYLKVDTGTGPVTIVFYSGGVTGTAVETIVVATGSSASFTVRRFDTVTILGTAAAETGEFCMTIRYTLS
notes: also called M-TEV-Ena1B (N=6)
binding result [11]: binds
